Test results reported in the supplement of paper PMC9732359.
± gives the uncertainty stated by the source.

Assay: protein stability index of a GFP-peptide fusion (yeast GPS) (PSI 1-4); higher = more stable; sorted into four equal gates, so the index is relative within each strain
Summary of the method: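 The protein stability index of a peptide was calculated by multiplying its read frequency in each gate by that gate's number and adding the products. The peptides were tiled 17-residue stretches of yeast proteins, fused downstream of GFP on a Cherry-expressing plasmid and carried in yeast as a pooled library. Mid-log cultures in leucine-free medium were sorted into four equal gates by GFP/Cherry ratio, and each gate's plasmids were PCR-amplified and Illumina-sequenced.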

Sequence	protein stability index (doa10∆)	protein stability index (pdr5∆)	protein stability index (san1∆)	protein stability index (ubr1∆)
NNPANNTNNNNSTGHSS [SWI1]	2.58 ± 0.036	2.15 ± 0.035	2.59 ± 0.034	2.12 ± 0.036
LLFKARLQQQQAQAQAQ [GAL11]	1.3 ± 0.081	1.59 ± 0.075	1.3 ± 0.14	1.5 ± 0.056
GSSALADNKEDVKKPFS [YLR335W/NUP2]	3.48 ± 0.099	3.16 ± 0.067	3.06 ± 0.06	3.21 ± 0.062
LSIICVGGHNVTIREQI [SIR3]	2.22 ± 0.069	1.65 ± 0.042	1.78 ± 0.092	1.81 ± 0.056
YKATATGPKQQEITTNL [SCL1]	3.17 ± 0.064	3 ± 0.11	2.93 ± 0.057	3.29 ± 0.078
VRNYKPLINRLKHYNGY [SWI1]	1.79 ± 0.048	2.2 ± 0.045	2.57 ± 0.06	2.54 ± 0.039
HRLLQRALFRQLKRWYW [RMP1]	2.29 ± 0.18	1.2 ± 0.12	1.22 ± 0.17	1.35 ± 0.11
IGQIIFSVRTKDSNKDV [RPL10]	2.18 ± 0.05	2.49 ± 0.048	2.21 ± 0.065	2.79 ± 0.051
QEELKKRQELEEASQQQ [MED2]	2.96 ± 0.058	3.2 ± 0.076	2.47 ± 0.071	3.29 ± 0.046
SSTDFSTCIVSLIRNNL [ECM29]	2.7 ± 0.066	2.99 ± 0.092	2.41 ± 0.063	2.88 ± 0.054
KPKMLPIPSKPTLFDLA [SRP68]	2.48 ± 0.071	2.54 ± 0.072	2.31 ± 0.099	2.53 ± 0.06
TEYFENKQSVSNLSPDL [DSN1]	3.48 ± 0.13	3.4 ± 0.1	3.34 ± 0.089	3.58 ± 0.058
LLTSAGCKNGSFTLLNQ [NUT1]	2.21 ± 0.12	2.32 ± 0.067	2.3 ± 0.28	2.68 ± 0.12
SNTYKEERSNNLLTPQP [MCD1]	2.76 ± 0.078	3.18 ± 0.094	3.01 ± 0.046	3.2 ± 0.051
RQKKKPTSAQKSAVSHA [IRR1]	1.34 ± 0.24			1.56 ± 0.15
IEGMEQRIIKELSIRFP [ARP7]	3.04 ± 0.096	3.21 ± 0.12	2.84 ± 0.086	2.26 ± 0.099
QKLDILVAKLKKVKSAS [SMC4]	2.64 ± 0.076	2.25 ± 0.051	2.61 ± 0.071	2.73 ± 0.045
VKKLEIQQHARYDCSFC [RPL43A]	2.73 ± 0.11	2.87 ± 0.092	2.96 ± 0.068	3.3 ± 0.092
FNFGGKSDTVTSASQPF [YOR098C/NUP1]	2.21 ± 0.056	2.03 ± 0.056	2.07 ± 0.071	1.93 ± 0.049
LGIKKEKRIQYAKDILQ [RPB2]	2.01 ± 0.059	2.12 ± 0.061	1.64 ± 0.094	1.99 ± 0.041

Sequence	protein stability index (doa10∆)	protein stability index (pdr5∆)	protein stability index (san1∆)	protein stability index (ubr1∆)
MKAVRKVAEVKKLEGTI [RPT4]	3.15 ± 0.093	3.2 ± 0.1	3.16 ± 0.073	3.56 ± 0.071
EKRHKNVPVHVSPAFRV [RPS11A]	1.8 ± 0.051	2.72 ± 0.077	2.9 ± 0.07	2.75 ± 0.053
LLVDKDANGVSLFELIV [YJL039C/NUP192]	3.02 ± 0.051	3.05 ± 0.055	3.07 ± 0.049	3.25 ± 0.037
KLLKEKVKLFHGILDDL [MED2]	3.1 ± 0.12	2.93 ± 0.13	3.09 ± 0.06	2.97 ± 0.14
LLREYDILSQILYGLVD [YJL039C/NUP192]	2.49 ± 0.081	2.06 ± 0.12	2.07 ± 0.11	2.19 ± 0.064
FEGNVATKAINGCIFTL [PRP8]	2.57 ± 0.068	2.32 ± 0.049	1.97 ± 0.053	2.71 ± 0.05
LTALGKEKEKEREEAEK [MED2]	1.3 ± 0.23	1.43 ± 0.16		1.32 ± 0.15
PNIMLIFGSGFGSADDT [FAS1]	3.07 ± 0.07	2.92 ± 0.073	3.12 ± 0.067	2.24 ± 0.065
KLSKEERAARVAAKIAA [RPL5]	2.54 ± 0.13	2.93 ± 0.079	2.49 ± 0.2	2.52 ± 0.078
DDGDDEDLLECLDRCKE [MTR3]	2.57 ± 0.097	3.08 ± 0.084	2.87 ± 0.085	2.77 ± 0.11
VQLLSKSHNAHVRCGTA [RPN2]	1.44 ± 0.071	1.5 ± 0.042	1.57 ± 0.08	1.72 ± 0.048
EPFFLVTKITDMLLHKY [SRB8]	2.86 ± 0.11	2.52 ± 0.088	2.88 ± 0.061	2.72 ± 0.083
KNDSLEKTINDLQRTQT [YIL149C/MLP2]	2.97 ± 0.074	3.02 ± 0.063	2.82 ± 0.059	2.89 ± 0.046
QKKRVVDPFTRKEWFDI [RPS1A]	2.77 ± 0.15	3.1 ± 0.18	3.03 ± 0.08	3.13 ± 0.13
EIEELKSSIQNLNELES [SMC3]	1.66 ± 0.2	2.06 ± 0.17	2.07 ± 0.28	2.71 ± 0.21
STKSNKTRNPLTHSTPK [RPL8A]	2.44 ± 0.29	1.95 ± 0.14		1.88 ± 0.15
VNDRSDISDSEGGLFEC [PCI8]	3.38 ± 0.2	3.11 ± 0.12	3.45 ± 0.071	3.08 ± 0.11
LPLTEHKSPNLSLMLES [SRB4]	2.43 ± 0.066	3.18 ± 0.06	2.39 ± 0.11	2.75 ± 0.06
DIFAVNLEESSKLDIYT [RET1]	2.98 ± 0.097	2.78 ± 0.081	2.72 ± 0.087	3 ± 0.08
